Source: PMC7925596, “Exploring targeting peptide-shell interactions in encapsulin nanocompartments” (Scientific Reports, 2021)

B1: Thermotoga maritima encapsulin (T1 encapsulin shell) (natural protein, T. maritima)
chain: MEFLKRSFAPLTEKQWQEIDNRAREIFKTQLYGRKFVDVEGPYGWEYAAHPLGEVEVLSDENEVVKWGLRKSLPLIELRATFTLDLWELDNLERGKPNVDLSSLEETVRKVAEFEDEVIFRGCEKSGVKGLLSFEERKIECGSTPKDLLEAIVRALSIFSKDGIEGPYTLVINTDRWINFLKEEAGHYPLEKRVEECLRGGKIITTPRIEDALVVSERGGDFKLILGQDLSIGYEDREKDAVRLFITETFTFQVVNPEALILLKF
notes: encapsulin shell protein of Thermotoga maritima, T1 icosahedral shell, 24 nm, 60 subunits; Cloned into pBAD/HisA cut with NcoI and XhoI; also called T. maritima encapsulin protein; source: E. coli One shot BL21 (DE3) Star, pBAD/HisA, L-arabinose induced; purified as assembled particles (PEG-8000 precipitation, SEC, anion exchange); copies: 60

Legend:
[1] = target: B1; experiment: bulk fluorescence of purified encapsulin particles (loading percentage); particles loaded in E. coli and purified; 15 ug/mL in 20 mM Tris, 100 mM NaCl, pH 8 with 1 mg/mL BSA; plate reader Ex 500 nm, Em 530 nm, 20 C; loading = percentage of occupied TP binding sites (T1: 60, T3: 180), mNeonGreen standard curve; triplicates; details: partners not purified
[2] = target: T1, Myxococcus xanthus encapsulin (T3 encapsulin shell) (M. xanthus, UniProt Q1D6H4 1-287); experiment: as above; details: partners not purified
T1 construct: encapsulin shell protein of Myxococcus xanthus, T3 icosahedral shell, 32 nm, 180 subunits; Cloned into pBAD/HisA cut with NcoI and XhoI; also called M. xanthus encapsulin protein; source: E. coli One shot BL21 (DE3) Star, pBAD/HisA, L-arabinose induced; purified as assembled particles (PEG-8000 precipitation, SEC, anion exchange); copies: 180

[3] = target: the molecule itself; experiment: negative stain transmission electron microscopy; purified particles, 1 mg/mL in low salt buffer, uranyl formate stain, 80 keV

T1 sequence (Q1D6H4 whole entry): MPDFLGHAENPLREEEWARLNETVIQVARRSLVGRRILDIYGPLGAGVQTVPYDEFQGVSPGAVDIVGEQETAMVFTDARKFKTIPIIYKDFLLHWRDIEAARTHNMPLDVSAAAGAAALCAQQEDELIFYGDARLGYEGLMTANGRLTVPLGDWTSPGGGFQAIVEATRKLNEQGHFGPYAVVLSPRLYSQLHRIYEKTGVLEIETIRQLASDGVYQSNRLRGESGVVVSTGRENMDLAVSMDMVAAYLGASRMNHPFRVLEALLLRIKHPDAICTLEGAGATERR

Binder	cargo proteins per shell [1] [cargo proteins per shell]	also measured
NTGGDLGIRK (native targeting peptide of the T. maritima (T1) encapsulin system, from the C-terminus of the native cargo protein; The targeting peptide is at the C-terminus of mNeonGreen; also called mNeonGreenTP (native T1 TP); native T1 TP; source: E. coli One shot BL21 (DE3) Star, pCDF-Duet1, IPTG induced before encapsulin; co-purified with encapsulin particles; not shown: mNeonGreen, N-terminal, kept) [mNeonGreen C-terminally fused to the native T1 targeting peptide]	~2	–
PLTVGSLRRGG (native 11-residue targeting peptide of the M. xanthus (T3) encapsulin system; The targeting peptide is at the C-terminus of mNeonGreen; also called mNeonGreenTP (native T3 TP); native T3 TP; source: E. coli One shot BL21 (DE3) Star, pCDF-Duet1, IPTG induced before encapsulin; co-purified with encapsulin particles; not shown: mNeonGreen, N-terminal, kept) [mNeonGreen C-terminally fused to the native T3 targeting peptide]	–	cargo proteins per shell [2]: ~45 cargo proteins per shell
DGSLGIGSLKG (consensus targeting peptide found in T1 encapsulin systems; The targeting peptide is at the C-terminus of mNeonGreen; also called mNeonGreenTP (T1 consensus TP); T1 consensus TP; source: E. coli One shot BL21 (DE3) Star, pCDF-Duet1, IPTG induced before encapsulin; co-purified with encapsulin particles; not shown: mNeonGreen, N-terminal, kept) [mNeonGreen C-terminally fused to the T1 consensus targeting peptide]	~2	–
B1	–	binding result [3]: binds
